Columns and labels:
[1] = target: B.63521 (HIV-1); assay: SPR
[2] = target: C.CH505 (HIV-1); assay: SPR

Q: What does the source list for CH105?
A: Kd [1]: 7 nM; Kd [2]: 7.4 nM

Q: How did the Kd [1] turn out when CH103 was run?
A: 2.4 nM

Q: And the Kd [2]?
A: 20 nM

Q: With CH106 as the substance, how does the Kd [1] read?
A: 5.1 nM

Q: And the Kd [2]?
A: 5.8 nM

Q: How did the Kd [1] turn out when CH104 was run?
A: 7.1 nM

Q: And the Kd [2]?
A: 8.9 nM
